Results from US20230374087A1, “METHOD TO IMPROVE PROTEIN QUALITY CONTROL” (The Johns Hopkins University, priority 2020, published 2023).
Substitutions are numbered along the chain they refer to. Names may count otherwise.

How the values were obtained:
[1] = test system: CHIP pS20; test: Immunoblot for phospho-S20 CHIP in myocytes; type: cell-based, rat; conditions: cardiomyocytes; cGMP or SIL; DT3 1 μM
Description: (§1) Tissue and cultured cardiomyocytes were lysed in 1× lysis buffer (Cell Signaling Technology), protein concentration was measured by bicinchoninic acid assay (Pierce), and extracts were subjected to SDS-PAGE using Novex Tris-Glycine Gels (4-20% gradient gel, Life Technologies) or Mini-protean TGX Gels (4-20% gradient gel, Bio-Rad), transferred to nitrocellulose membranes, and probed with various primary antibodies (CHIP (#2080S), Hsc70 (#8444S), p-CHIP S20 (Custom antibody, AbMart Inc., Shanghai, China; Project: 25011-1), Myc (#2276S), GAPDH (#2118S), and α-tubulin (#3878S) (Cell Signaling) and ubiquitin antibody (#SAB4503053) from Sigma), and fluorescence-labeled secondary antibodies (Licor, #926-32211, 926-32210, 926-68023, or 926-68022). Gels were imaged (Odyssey, Licor) and band intensity quantified (Odyssey Software 3.1).
Human CHIP peptide fragments containing amino acid residues 13-30 were incubated with cGMP/PKG and assayed by MS. […] Phosphorylation was also observed at neighboring S24 and S26, but only when a S20A CHIP mutant was used (FIG. 2D). This indicates the primary target for PKG on CHIP is at S20. A monoclonal phospho-antibody generated against the S20 site in CHIP was tested in vitro with recombinant PKG1α and CHIP, verifying a consistent phospho-S20-CHIP signal. Use of a CHIP-S20A mutant CHIP confirmed specificity (FIG. 2E).

[2] = test system: TTR-V122I; test: TTR abundance in hiPSC-CMs by western blot; type: cell-based, human; conditions: TTR-V122I 5 μM; for TTR accumulation: Ad-Chip 10 MOI; for TTR accumulation with Lamp2A knockdown: siLamp2A 100 μM
Description: (§2) Human induced pluripotent stem cell derived cardiomyocytes (hiPSC-CMs) were infected with Ad-Chip WT, SE, or SA (10 MOI), in the presence or absence of protein kinase G (PKG) stimulation via cGMP (100 mM) and exposed to media containing TTR-V122I (5 μM) or control for 14 days. Cells were lysed and TTR abundance was determined by western blotting for TTR with a total protein stain used to show equal loading.
as §2, with “Lamp2A knockdown” for “protein kinase G (PKG) stimulation”, “siRNA (siLamp2A, 100 μM)” for “cGMP (100 mM)”, “loading. Knocking down Lamp2A removes the method of protein degradation known as chaperone mediated autophagy (CMA).” for “loading.”

[3] = test system: myocardial infarction; test: Myocardial infarction by coronary ligation in CHIP S20E knock-in mice
Description: Male and female mice (aged ˜3-4 months) were subjected to transmural myocardial infarction by mid left anterior descending artery ligation under open thoracotomy (25). Controls underwent open chest surgery and LAD isolation without ligation. Data obtained 1-week after infarction included 2D echocardiography (Vevo2100, 20-MHz; Visualsonics) in conscious mice to measure LV volume and ejection fraction, with analysis blinded to study group.
Myocardium was fixed in 4% paraformaldehyde, paraffin embedded, and sectioned into 4 μm slices, and stained with Masson's Trichrome. Fibrosis was quantified by color-based pixel count and intensity in parallel sections of the ischemic and remote areas (Aperio Image Scope). Transmural infarct size was estimated as the arc angle subtended by dense scar in a mid-MI cross section divided by 360° and expressed as percent. Immunostaining for ubiquitin (Sigma) and CHIP (Cell Signaling) was performed using AlexaFluor 488 conjugated secondary antibodies following the manufacturer's protocol. Counterstain was performed using DAPI (Invitrogen) and Troponin-T (Thermo Scientific) antibodies. Image acquisition was performed on a Leica confocal microscope (TCS SPE II) at 40× magnification.

[4] = target: T1, Hsc70 (Rattus norvegicus, UniProt P63018); test: CHIP-Hsc70 co-immunoprecipitation from myocyte lysate; type: cell-based; conditions: myocytes with or without SI, Hsc70 as bait
T1 construct: lysate from myocytes with or without exposure to SI were immunoprecipitated using Hsc70 as bait; endogenous in cells; host or cells: neonatal rat cardiomyocytes infected with adenovirus for Myc-tagged CHIP WT, S20E or S20A
Description: as §1
To test whether thermodynamic stabilization of CHIP-HSC70 due to S20 phosphorylation enhances protein binding, lysate from myocytes with or without exposure to SI were immunoprecipitated using Hsc70 as bait. […] Reduced CHIP-Hsc70 interaction was also observed in vivo following MI in hearts with PKG activation suppressed by mPDE5A/oe, whereas this was enhanced in WT hearts (FIG. 5C, FIG. 14B).

[5] = target: T2, Hsp70 (385-641) (Homo sapiens, UniProt P0DMV8); test: Isothermal titration calorimetry of CHIP-Hsp70 binding; conditions: ITC, 25° C.; for enthalpy (DH) / entropy (DS): triplicate, average ± SD
T2 construct: Hsp70 (385-641)
T2 sequence (P0DMV8 385-641): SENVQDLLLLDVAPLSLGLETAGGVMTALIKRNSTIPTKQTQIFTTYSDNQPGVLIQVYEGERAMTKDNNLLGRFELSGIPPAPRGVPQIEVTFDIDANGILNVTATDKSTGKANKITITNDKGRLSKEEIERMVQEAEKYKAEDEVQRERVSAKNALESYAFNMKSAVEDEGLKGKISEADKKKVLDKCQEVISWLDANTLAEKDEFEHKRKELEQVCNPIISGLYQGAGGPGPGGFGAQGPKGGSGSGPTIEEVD
Description: Isothermal titration calorimetry was carried out using a TA Instruments NanoITC equilibrated at 25° C. and utilizing a stir speed of 600 rpm. Experiments were conducted in triplicate and data represents the average±one standard deviation. Titrations utilized 350 μM WT or S20E CHIP titrated into 50 µM Hsp70 (385-641) as a series of twenty four 2 μL injections.

[6] = test system: TTR-V122I; test: TTR abundance in cardiac fibroblasts by western blot; type: cell-based; conditions: neonatal rat cardiac fibroblasts, WT or SA 10 MOI, SE 0, 2.5, 5 or 10 MOI, TTR-V122I 5 μM, 14 days
Description: Fibroblasts were isolated from neonatal rat hearts and infected with Ad-Chip WT or SA (10 MOI) or SE (0, 2.5, 5, or 10 MOI) and exposed to media containing TTR-V122I (5 μM) for 14 days. Cells were lysed and TTR abundance was determined by western blotting for TTR with a total protein stain used to show equal loading.

[7] = target: T3, Hsp40-stimulated ATPase activity of Hsc70 (Homo sapiens, UniProt P11142); test: Chaperone refolding ATPase activity assay; type: biochemical; conditions: CHIP 0.5-6 μM, Hsc70 0.5 μM, Hsp40 0.25 μM
T3 construct: His-tag (N); made in house; host or cells: E. coli BL21(DE3)
T3 sequence (P11142 whole entry): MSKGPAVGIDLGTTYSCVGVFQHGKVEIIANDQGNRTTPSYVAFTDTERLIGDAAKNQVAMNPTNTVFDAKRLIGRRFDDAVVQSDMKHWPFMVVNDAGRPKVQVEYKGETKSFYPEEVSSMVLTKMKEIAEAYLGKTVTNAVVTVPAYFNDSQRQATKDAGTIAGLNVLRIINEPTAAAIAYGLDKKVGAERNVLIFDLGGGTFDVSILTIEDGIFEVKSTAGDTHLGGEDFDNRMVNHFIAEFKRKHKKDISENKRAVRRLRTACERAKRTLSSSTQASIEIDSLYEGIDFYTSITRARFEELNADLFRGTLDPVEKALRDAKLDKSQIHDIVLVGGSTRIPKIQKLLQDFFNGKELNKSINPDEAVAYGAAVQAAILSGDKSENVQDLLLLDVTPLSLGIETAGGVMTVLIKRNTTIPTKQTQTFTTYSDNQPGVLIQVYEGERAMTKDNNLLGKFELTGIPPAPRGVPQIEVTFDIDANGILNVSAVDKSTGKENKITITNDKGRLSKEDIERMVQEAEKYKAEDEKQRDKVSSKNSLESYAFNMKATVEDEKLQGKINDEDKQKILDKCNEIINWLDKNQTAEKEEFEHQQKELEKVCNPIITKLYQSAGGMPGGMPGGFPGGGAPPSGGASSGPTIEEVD
Description: Human HSP40 (DnaJB1), human CHIP and CHIP point mutants in pET30a with a C-terminal His-tag and hHsc70 (HSPA8) wild type with an N-terminal His-tag in pCOLA-Duet1 were expressed in BL21(DE3) and purified on Ni-NTA (Qiagen). Hsc70 and CHIP proteins were induced and expressed for 22 hours at 18° C. Hsp40 protein was induced and expressed for 5 hours at 25° C. Required stock solutions of proteins were prepared by diluting high concentrated stocks in protein storage buffer into protein storage buffer, 20 mM HEPES (pH7.4), 150 mM NaCl. Hsc70 and Hsp40 were used at a concentration of 0.5 μM and 0.25 μM, respectively, with a gradient of CHIP protein concentrations (0.5-6 μM). Hsp40-stimulated ATPase activity of Hsc70 was measured using fluorescent polarization with the […]® ADP2 FP Assay (BellBrook Labs, 3010-1K) on a Clariostar plate reader (BMG) in 384 well black, non-binding plates (Greiner, 784900). Optimized instrument settings were used: Excitation wavelength. 590 nm; Emission wavelength: 675 nm; Required value: 5%; Target mP: 20; Gain A: 1824; Gain B: 1854; Focal Height: 12.4 mm. Values of μM ADP formed in the reactions were interpolated from an ATP/ADP standard curve run in parallel.

[8] = test system: neonatal rat cardiomyocytes (NRCMs)
Description: After overnight culture, subsets of NRCMs were infected with adenovirus (AdV) containing a FLAG-tagged PDE5, FLAG control, Myc-tagged CHIP WT or K31A (provided by Dr. Cam Patterson), S20E or S20A (Welgen Inc., Worcester, MA). Forty-eight hours after infection, cells were exposed to either simulated ischemia (SI) or normal conditions. SI involved incubating cells in DMEM containing deoxyglucose (20 mM), NaCl (125 mM), KCl (8 mM), KH2PO4 (1.2 mM), MgSO4 (1.25 mM), CaCl2) (1.2 mM), NaHCO3(6.25 mM), sodium lactate (5 mM), and HEPES (20 mM) with a pH of 6.6. Cells were then placed in an incubator chamber (Billups-Rothenberg) with 95% nitrogen, 4% carbon dioxide, and 1% oxygen. Normoxic controls were incubated in DMEM supplemented with 10% FBS in air composed of 95% carbon dioxide and 5% oxygen. RNA or protein was harvested after 48 hours of SI. Cells were also treated with sildenafil (1 μM) or vehicle, or small interference RNA (siRNA, 100 pM) specific for rat Stub1 (Qiagen, Cat. #: SI01532251) or scrambled control provided 24 hours after plating and transfected with Xfect (Takara) per manufacturer protocol.
Lactate dehydrogenase (LDH) leakage and (3-[4,5-dimethylthiazol-2-yl]-2,5-diphenyltetrazolium bromide) (MTT) were assessed in cultured cardiomyocytes and media after SI from the same culture dish. LDH was assayed by commercial assay (Roche) following manufacturer's protocol, read in 96 well microplates on a Spectramax M5 (Molecular Devices) at 490 nm absorbance. For MTT, cells were washed in phosphate-buffered saline, MTT (Sigma-Aldrich) working solution added to the culture dish, incubated at 37° C., solubilized with acidic isopropanol, transferred to a 96 well plate, and read at 570 nm with background subtraction at 650 nm on a Spectramax M5.

[9] = 14 days, no Lamp2A knockdown (Example 8)

`Nc1nc2c(ncn2[C@@H]2O[C@@H]3COP(=O)(O)O[C@H]3[C@H]2O)c(=O)[nH]1` [cGMP, cyclic guanosine monophosphate, reference compound] was tested. Which “CHIP pS20 level” value [1] did it give?
The value was “CHIP pS20 increased”.

And the “TTR accumulation with PKG stimulation” value ([2]; cGMP 100 mM, 14 days)?
The value was “reduce TTR accumulation in Chip WT cells but not in Chip SA cells”.

B1: CHIP-S20E: CHIP with serine 20 to glutamic acid phospho-mimetic substitution; recombinant protein, adenovirus-expressed, or knock-in mouse (protein)
chain: MKGKEEKEGGARLGAGGGEPEKSPSAQELKEQGNRLFVGRKYPEAAACYGRVITRNPLVAVYYTNRALCYLKMQQHEQALADCRRALELDGQSVKAHFFLGQCQLEMESYDEAIANLQRAYSLAKEQRLNFGDDIPSALRIAKKKRWNSIEERRIHQESELHSYLSRLIAAERERELEECQRNHEGDEDDSHVRAQQACIEAKHDKYMADMDELFSQVDEKRKKRDIPDYLCGKISFELMREPCITPSGITYDRKDIEEHLQRVGHFDPVTRSPLTQEQLIPNLAMKEVIDAFISENGWVEDY
modifications: left off: small tags and cut ends
notes: CHIP with serine 20 to glutamic acid phospho-mimetic substitution; recombinant protein, adenovirus-expressed, or knock-in mouse
Which “accumulation of ubiquitinated proteins after MI” value ([3]; knock-in mice vs littermate controls, peri-infarct zone) does the source give for B1 here?
The value was “less accumulation of ubiquitinated proteins”.

And the “mortality after MI” value ([3]; male homozygotes and heterozygotes vs littermate controls)?
Its value is “lower mortality”.

What about the “infarction size after MI” value ([3]; male knock-in mice vs littermate controls) of the same molecule?
Its value is “reduced infarction size”.

What about the “heart function after MI” value ([3]; male knock-in mice vs littermate controls, echocardiography) of the same molecule?
Its value is “improved heart function”.

What about the “co-precipitation of CHIP and Hsc70” value [4] of the same molecule?
Its value is “confirmed”.

And the “increase of Hsp70 affinity as compared to CHIP-WT” value [5]?
The value was 59%.

What about the “more negative enthalpy as compared to CHIP-WT” value [5] of the same molecule?
The value was 5.6 kJ/mol.

What about the “enthalpy (DH)” value [5] of the same molecule?
Its value is -32.1 ± 0.9 kJ/mol.

And the “entropy (DS)” value [5]?
Its value is 9.8e-06 ± 3.7e-06 kJ/mol.

And the Kd ([5]; read-out: increase of Hsp70 affinity as compared to CHIP-WT)?
The Kd was roughly 0.5 µM.

And the TTR accumulation [6]?
Its TTR accumulation is “cleared by Chip SE expression in a dose-dependent manner”.

What about the TTR accumulation ([2]; 14 days (Example 7)) of the same molecule?
The TTR accumulation was “cleared”.

What about the TTR accumulation [2, 9] of the same molecule?
Its TTR accumulation is “cleared”.

And the “TTR accumulation with Lamp2A knockdown” value ([2]; 14 days)?
Its value is “removed the protective effect”.

B2: CHIP-WT: wild type carboxy terminus of Hsc70-interacting protein (CHIP), recombinant or adenovirus-expressed (protein)
chain: B1 chain with E19S
modifications: left off: small tags and cut ends
With B2 as the molecule, how does the “co-precipitation of CHIP and Hsc70” value [4] read?
Its value is “confirmed”.

What about the “enthalpy (DH)” value [5] of the same molecule?
The value was -26.4 ± 3.3 kJ/mol.

What about the “entropy (DS)” value [5] of the same molecule?
Its value is 2.55e-05 ± 8.3e-06 kJ/mol.

And the TTR accumulation [6]?
Its TTR accumulation is “TTR accumulated”.

And the TTR accumulation ([2]; 14 days (Example 7))?
Its TTR accumulation is “TTR accumulated”.

And the TTR accumulation [2, 9]?
The TTR accumulation was “TTR accumulated”.

And the “TTR accumulation with Lamp2A knockdown” value ([2]; 14 days)?
Its value is “exacerbated the accumulation of TTR”.

And the “inhibition of Hsp70 ATPase activity” value [7]?
Its value is “dose-dependently inhibited”.

B3: CHIP-K31A: CHIP Lys 31 (K30 in humans) to Ala mutant that abolishes CHIP chaperone interactions (protein)
chain: B1 chain with E19S, K30A
modifications: left off: small tags and cut ends
For B3, which “inhibition of Hsp70 ATPase activity” value [7] is on record?
Its value is “an effect that was lost”.

B4: S24E: S24E mutant CHIP overexpressed in neonatal myocytes (protein, UniProt Q9WUD1 1-304, looked up, variant S24E)
E3 ubiquitin-protein ligase …: MKGKEEKEGGARLGTGGGGSPDKEPSAQELKEQGNRLFVGRKYPEAAACYGRAITRNPLVAVYYTNRALCYLKMQQPEQALADCRRALELDGQSVKAHFFLGQCQLEMESYDEAIANLQRAYSLAKEQRLNFGDDIPSALRIAKKKRWNSIEERRIHQESELHSYLTRLIAAERERELEECQRNHEGHEDDGHIRAQQACIEAKHDKYMADMDELFSQVDEKRKKRDIPDYLCGKISFELMREPCITPSGITYDRKDIEEHLQRVGHFDPVTRSPLTQEQLIPNLAMKEVIDAFISENGWVEDY
Which “SI-induced cytotoxicity (LDH/MTT ratio)” value [8] does the source give for B4 here?
Its value is “no significant impact on the cytotoxic response to SI or SI+SIL”.

B5: S24A: S24A mutant CHIP overexpressed in neonatal myocytes (protein, UniProt Q9WUD1 1-304, looked up, variant S24A)
E3 ubiquitin-protein ligase …: B4 E3 ubiquitin-protein ligase … with E24A
How did the “SI-induced cytotoxicity (LDH/MTT ratio)” value [8] turn out when B5 was run?
Its value is “no significant impact on the cytotoxic response to SI or SI+SIL”.

B6: S20E/S24E: S20E/S24E combination mutant CHIP (protein, UniProt Q9WUD1 1-304, looked up, variant S20E S24E)
E3 ubiquitin-protein ligase …: B4 E3 ubiquitin-protein ligase … with S20E
How did the “SI-induced cytotoxicity (LDH/MTT ratio)” value [8] turn out when B6 was run?
The value was “very similar to those with S20 mutations alone”.

B7: S20A/S24A: S20A/S24A combination mutant CHIP (protein, UniProt Q9WUD1 1-304, looked up, variant S20A S24A)
E3 ubiquitin-protein ligase …: B4 E3 ubiquitin-protein ligase … with S20A, E24A
For B7, which “SI-induced cytotoxicity (LDH/MTT ratio)” value [8] is on record?
The value was “very similar to those with S20 mutations alone”.
